Experimental data reported in publication PMC10427625, “Structural basis for negative regulation of the Escherichia coli maltose system” (Nature Communications, 2023).
Numbering of substitutions follows the chain as printed. Names and notes keep the numbering of the source.

B1: MalT (wild type), N-terminally His-tagged (natural protein, Escherichia coli, UniProt P06993 1-901, looked up)
chain: MLIPSKLSRPVRLDHTVVRERLLAKLSGANNFRLALITSPAGYGKTTLISQWAAGKNDIGWYSLDEGDNQQERFASYLIAAVQQATNGHCAICETMAQKRQYASLTSLFAQLFIELAEWHSPLYLVIDDYHLITNPVIHESMRFFIRHQPENLTLVVLSRNLPQLGIANLRVRDQLLEIGSQQLAFTHQEAKQFFDCRLSSPIEAAESSRICDDVSGWATALQLIALSARQNTHSAHKSARRLAGINASHLSDYLVDEVLDNVDLATRHFLLKSAILRSMNDALITRVTGEENGQMRLEEIERQGLFLQRMDDTGEWFCYHPLFGNFLRQRCQWELAAELPEIHRAAAESWMAQGFPSEAIHHALAAGDALMLRDILLNHAWSLFNHSELSLLEESLKALPWDSLLENPQLVLLQAWLMQSQHRYGEVNTLLARAEHEIKDIREDTMHAEFNALRAQVAINDGNPDEAERLAKLALEELPPGWFYSRIVATSVLGEVLHCKGELTRSLALMQQTEQMARQHDVWHYALWSLIQQSEILFAQGFLQTAWETQEKAFQLINEQHLEQLPMHEFLVRIRAQLLWAWARLDEAEASARSGIEVLSSYQPQQQLQCLAMLIQCSLARGDLDNARSQLNRLENLLGNGKYHSDWISNANKVRVIYWQMTGDKAAAANWLRHTAKPEFANNHFLQGQWRNIARAQILLGEFEPAEIVLEELNENARSLRLMSDLNRNLLLLNQLYWQAGRKSDAQRVLLDALKLANRTGFISHFVIEGEAMAQQLRQLIQLNTLPELEQHRAQRILREINQHHRHKFAHFDENFVERLLNHPEVPELIRTSPLTQREWQVLGLIYSGYSNEQIAGELEVAATTIKTHIRNLYQKLGVAHRQDAVQHAQQLLKMMGYGV
notes: Purified with 0.1 mM ADP or 0.4 mM ATP; the elution at 103 kDa fits the whole protein; In PDB 8BOB only residues 1-423 are well defined; also called WT MalT; MalT WT; source: E. coli BL21 (DE3) ΔmalT220, purified (Ni Sepharose, gel filtration)
B2: MalT-R9S, N-terminally His-tagged (natural protein, Escherichia coli, UniProt P06993 1-901, looked up)
chain: B1 chain with R9S
notes: MalT of Escherichia coli, variant of plasmid pOM206 made by site-directed mutagenesis; source: E. coli BL21 (DE3) ΔmalT220, purified (Ni Sepharose, gel filtration)
B3: MalT-S5L, N-terminally His-tagged (natural protein, Escherichia coli, UniProt P06993 1-901, looked up)
chain: B1 chain with S5L
notes: as for B2
B4: MalT-S8A, N-terminally His-tagged (natural protein, Escherichia coli, UniProt P06993 1-901, looked up)
chain: B1 chain with S8A
notes: as for B2
B5: MalT-R143A, N-terminally His-tagged (natural protein, Escherichia coli, UniProt P06993 1-901, looked up)
chain: B1 chain with R143A
notes: as for B2
B6: MalT-R173A, N-terminally His-tagged (natural protein, Escherichia coli, UniProt P06993 1-901, looked up)
chain: B1 chain with R173A
notes: as for B2
B7: MalT-E140A, N-terminally His-tagged (natural protein, Escherichia coli, UniProt P06993 1-901, looked up)
chain: B1 chain with E140A
notes: as for B2
B8: MalT-N169A, N-terminally His-tagged (natural protein, Escherichia coli, UniProt P06993 1-901, looked up)
chain: B1 chain with N169A
notes: as for B2
B9: MalY (wild type), GST tag removed (enzyme, Escherichia coli, UniProt P23256 1-390, looked up)
chain: MFDFSKVVDRHGTWCTQWDYVADRFGTADLLPFTISDMDFATAPCIIEALNQRLMHGVFGYSRWKNDEFLAAIAHWFSTQHYTAIDSQTVVYGPSVIYMVSELIRQWSETGEGVVIHTPAYDAFYKAIEGNQRTVMPVALEKQADGWFCDMGKLEAVLAKPECKIMLLCSPQNPTGKVWTCDELEIMADLCERHGVRVISDEIHMDMVWGEQPHIPWSNVARGDWALLTSGSKSFNIPALTGAYGIIENSSSRDAYLSALKGRDGLSSPSVLALTAHIAAYQQGAPWLDALRIYLKDNLTYIADKMNAAFPELNWQIPQSTYLAWLDLRPLNIDDNALQKALIEQEKVAIMPGYTYGEEGRGFVRLNAGCPRSKLEKGVAGLINAIRAVR
notes: MalY, PLP-dependent dimeric enzyme of E. coli; full-length malY amplified from E. coli genomic DNA, cloned in pGEX-6P-1; the printed mass of 2 × 43.5 kDa fits the untagged protein; Each subunit holds the cofactor PLP; also called MalY WT; source: E. coli BL21 (DE3) ΔmalT220, purified (Glutathione Sepharose, gel filtration); not shown: GST, N-terminal, cleaved

Experiments:
ADP = test: luciferase assay of protein-bound nucleotide; parameters: unit not given here; conditions: parent: est. 98; read off a plot
ATP = test: luciferase assay of protein-bound nucleotide; parameters: unit not given here; conditions: parent: est. 0; read off a plot
[1] = biological target: B9; test: cryo-EM structure; purified MalT-MalY complex at about 0.5 mg/ml, ADP and PLP bound; 2.94 Å, C2 symmetry; conditions: both partners purified
[2] = biological target: the molecule itself; test: SEC; Superdex 200 Increase 10/300 GL, in the presence of 1 mM maltotriose and 0.1 mM ADP; same molar amounts of MalT and MalY WT or MalY-D182A/E185A/S218A, separately or together; fractions on SDS-PAGE
[3] = biological target: the molecule itself; test: SEC; Superose 6 Increase 10/300 GL, 4 °C; MalT pre-incubated at 20 °C for 20 min in buffer I; run in buffer E with 1 mM maltotriose and 0.4 mM ATP; self-association of MalT
[4] = biological target: the molecule itself; test: SEC; Superdex 200 Increase 10/300 GL, 4 °C, in the presence of ADP; MalT (buffer A, 0.1 mM ADP) and MalY (buffer TKCl, 10 μM PLP) each alone, or incubated at a 1:1 molar ratio on ice for 30 min and run in buffer TKCl with 0.1 mM ADP and 10 μM PLP
[5] = biological target: B1; test: as above; conditions: both partners purified

Question: How did the other: Nucleotide content (ADP) turn out when “MalT (wild type), N-terminally His-tagged (from UniProt P06993) R19A” was run?
Answer: 28

Question: And the other: Nucleotide content (ATP)?
Answer: 7.5

Question: With “MalT (wild type), N-terminally His-tagged (from UniProt P06993) K6A” as the molecule, how does the other: Nucleotide content (ADP) read?
Answer: 13

Question: And the other: Nucleotide content (ATP)?
Answer: 58

Question: Which “stoichiometry N” value [1] does the source give for B1 here?
Answer: 1 MalT per MalY (printed as 2:2)

Question: Does B1 bind [2]?
Answer: binds

Question: Does B2 bind [3]?
Answer: binds

Question: Does B3 bind [3]?
Answer: binds

Question: Does B4 bind [3]?
Answer: binds

Question: Does B5 bind [3]?
Answer: binds

Question: Does B6 bind [3]?
Answer: binds

Question: Does B7 bind [3]?
Answer: binds

Question: Does B8 bind [3]?
Answer: binds

Question: Which results are given for B9?
Answer: stoichiometry N [4]: 2; binding result [5]: binds
